Test results reported in doi:10.1101/2022.03.25.485794 (bioRxiv, 2022).
Read-outs that look alike come from different tables or passages of the source.

Assays:
Assay in all cases: cryo-EM structure
[1] = target: T1, E. coli [Cys541;Pro607]-σ^70 (E. coli, UniProt P00579 1-613, R541C | L607P)
[2] = target: E. coli NusA (E. coli, UniProt P0AFF6 1-495)
[3] = target: T1, E. coli [Cys541;Pro607]-σ^70; remark: listed apart in the source

| Binder | binding result [1] | binding result [2] | binding result [3] |
| --- | --- | --- | --- |
| wild-type Qλ (Q protein of bacteriophage λ) (natural protein, UniProt P03047 1-207, looked up) MRLESVAKFHSPKSPMMSDSPRATASDSLSGTDVMAAMGMAQSQAGFGMAAFCGKHELSQNDKQKAINYLMQFAHKVSGKYRGVAKLEGNTKAKVLQVLATFAYADYCRSAATPGARCRDCHGTGRAVDIAKTELWGRVVEKECGRCKGVGYSRMPASAAYRAVTMLIPNLTQPTWSRTVKPLYDALVVQCHKEESIADNILNAVTR | binds | binds |  |
| Qλ^M1S (Q protein of bacteriophage λ, M1S derivative) (natural protein, UniProt P03047 1-207, looked up) SRLESVAKFHSPKSPMMSDSPRATASDSLSGTDVMAAMGMAQSQAGFGMAAFCGKHELSQNDKQKAINYLMQFAHKVSGKYRGVAKLEGNTKAKVLQVLATFAYADYCRSAATPGARCRDCHGTGRAVDIAKTELWGRVVEKECGRCKGVGYSRMPASAAYRAVTMLIPNLTQPTWSRTVKPLYDALVVQCHKEESIADNILNAVTR |  |  | binds |
